Earlier results in PMC4336166.

Molecular target: clathrin coat (Homo sapiens) (UniProt Q00610)
UniProt Q00610, sequence (Q00610 2-1675): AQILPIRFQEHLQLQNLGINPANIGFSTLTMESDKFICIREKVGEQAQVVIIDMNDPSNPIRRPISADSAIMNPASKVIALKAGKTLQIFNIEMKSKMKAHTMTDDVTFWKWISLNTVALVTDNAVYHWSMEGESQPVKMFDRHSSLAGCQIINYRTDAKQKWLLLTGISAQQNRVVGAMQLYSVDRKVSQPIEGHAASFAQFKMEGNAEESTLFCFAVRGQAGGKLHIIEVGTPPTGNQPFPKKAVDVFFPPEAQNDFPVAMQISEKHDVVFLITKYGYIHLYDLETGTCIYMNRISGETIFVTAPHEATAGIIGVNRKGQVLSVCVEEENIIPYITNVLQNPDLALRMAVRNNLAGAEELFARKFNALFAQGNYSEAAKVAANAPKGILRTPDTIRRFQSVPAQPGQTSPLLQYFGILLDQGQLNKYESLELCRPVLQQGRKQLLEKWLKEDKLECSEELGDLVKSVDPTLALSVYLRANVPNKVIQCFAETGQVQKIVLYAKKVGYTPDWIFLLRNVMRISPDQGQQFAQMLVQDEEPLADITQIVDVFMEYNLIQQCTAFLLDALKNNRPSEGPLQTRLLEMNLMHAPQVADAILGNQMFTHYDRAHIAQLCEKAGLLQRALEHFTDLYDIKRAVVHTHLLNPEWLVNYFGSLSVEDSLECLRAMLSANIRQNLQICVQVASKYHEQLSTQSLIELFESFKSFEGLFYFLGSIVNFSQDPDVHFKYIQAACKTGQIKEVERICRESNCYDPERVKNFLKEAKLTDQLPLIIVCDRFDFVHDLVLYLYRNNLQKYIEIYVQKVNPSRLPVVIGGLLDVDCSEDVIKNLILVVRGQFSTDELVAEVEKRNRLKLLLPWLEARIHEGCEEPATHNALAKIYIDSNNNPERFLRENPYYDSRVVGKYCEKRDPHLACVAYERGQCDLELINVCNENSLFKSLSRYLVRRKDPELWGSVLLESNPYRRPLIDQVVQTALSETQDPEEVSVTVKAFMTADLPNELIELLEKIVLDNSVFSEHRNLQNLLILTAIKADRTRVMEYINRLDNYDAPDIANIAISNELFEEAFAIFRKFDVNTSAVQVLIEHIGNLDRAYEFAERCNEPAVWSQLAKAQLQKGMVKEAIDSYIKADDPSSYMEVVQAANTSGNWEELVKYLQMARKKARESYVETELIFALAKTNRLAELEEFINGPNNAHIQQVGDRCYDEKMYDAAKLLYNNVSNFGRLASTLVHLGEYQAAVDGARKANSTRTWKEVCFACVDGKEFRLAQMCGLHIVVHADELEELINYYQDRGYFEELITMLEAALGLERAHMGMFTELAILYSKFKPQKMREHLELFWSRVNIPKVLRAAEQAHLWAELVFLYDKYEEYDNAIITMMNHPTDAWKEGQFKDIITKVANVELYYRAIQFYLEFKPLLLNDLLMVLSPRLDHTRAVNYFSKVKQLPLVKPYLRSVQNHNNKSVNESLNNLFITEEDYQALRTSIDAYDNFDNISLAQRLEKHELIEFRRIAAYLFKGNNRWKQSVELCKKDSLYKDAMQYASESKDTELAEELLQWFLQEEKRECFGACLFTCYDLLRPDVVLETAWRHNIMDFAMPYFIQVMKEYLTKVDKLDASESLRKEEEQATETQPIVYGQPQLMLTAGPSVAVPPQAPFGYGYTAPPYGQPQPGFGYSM

Which Kd does the source give for epsin CLAP domain (from UniProt Q9Y6I3) here?
The Kd was 123 µM.
